Assay [1] deals with T1, NP-1/Fc (Neuropilin-1/Fc, R&D Systems).
T1 construct: Bought reagent; also called Npn-1
The assay is described as follows: competition of 125I-VEGF165 binding to plate-coated NP-1/Fc. The procedure:
An assay buffer consisting of Hank's Balanced Salt Solution (HBSS), 25 mM HEPES, and 0.1% BSA, pH 7.4 was used, and for all experiments, Assay volume per well was 75 µl. Plates (Nunc MaxiSorp white opaque Microtiter plate [C-bottom, 437796]) were coated by incubating the wells with 75 µl of a solution containing 3 µlg/mL NP-1/Fc in D-PBS/0.1% NaAzide overnight at 4° C. after covering with sealing tape (Dynex, VWR Cat. No. 62402-931). The next day all wells, even control wells lacking NP-1/Fc, were blocked 2 hrs with blocking buffer (1% BSA in D-PBS with 0.05% v/v Tween-20) then washed 4× with PBST (D-PBS/0.05% v/v Tween-20) before starting the assay. All points were derived from triplicate wells, and for each set of replicates in NP-1/Fc-coated wells, a companion set in the absence of the receptor was included. […] After addition of the appropriate solutions, microtiter plates were incubated at 4° C. for 2 hours. Following the incubation, plates were hand-washed 5 times with D-PBS containing 0.05% Tween-20 and 0.1% BSA. The plates were blotted dry and 25 µl deionized water and 100 µl scintillation fluid (Optiphase SuperMix, Wallac) were added to each well.

Assay [2] shares this target. Briefly: fluorescence polarization competition against labeled BRU-326 on NP-1/Fc. A general note: Polarisation of emitted light reports the rotation of a fluorescent probe.
The target is the same in assay [3]. The assay is described as follows: fluorescence polarization, labeled ligand (5-20 nM) titrated with NP-1/Fc, 37 °C. How it is done:
FP values (mP) for each substrate was measured by titrating the ligand (5–20 nM) with receptor protein using a Jolley Research and Consulting FPM-1 fluorescence Polarization analyzer. In each of these experiments the observed polarization values were plotted against receptor concentration. The mP values for 100% binding of tracer labeled ligand to receptor protein was calculated using the software provided by the vendor.
Figure 3: FIG. 3: Binding of TKPPR (SEQ ID NO: 2) derivatives with NP-1/Fc by Fluorescence Polarization. The indicated Oregon Green-labeled derivatives were incubated with increasing concentrations of NP-1 and polarization was measured. […] Figure 4: FIG. 4: Binding of TKPPR (SEQ ID NO: 2) derivatives with KDR-Fc by FP.

Experimental findings from patent US7109167 are described below.

For orientation: IC50 means the concentration at which inhibition is half-maximal. For orientation: Kd means the constant that tells how readily two partners part at equilibrium. A high value points to lower affinity.

No end group written: not given here. Oregon Green (5-isomer) = Oregon Green fluorescent label, 5-isomer

T1 sequence (Q9QWJ9 22-855): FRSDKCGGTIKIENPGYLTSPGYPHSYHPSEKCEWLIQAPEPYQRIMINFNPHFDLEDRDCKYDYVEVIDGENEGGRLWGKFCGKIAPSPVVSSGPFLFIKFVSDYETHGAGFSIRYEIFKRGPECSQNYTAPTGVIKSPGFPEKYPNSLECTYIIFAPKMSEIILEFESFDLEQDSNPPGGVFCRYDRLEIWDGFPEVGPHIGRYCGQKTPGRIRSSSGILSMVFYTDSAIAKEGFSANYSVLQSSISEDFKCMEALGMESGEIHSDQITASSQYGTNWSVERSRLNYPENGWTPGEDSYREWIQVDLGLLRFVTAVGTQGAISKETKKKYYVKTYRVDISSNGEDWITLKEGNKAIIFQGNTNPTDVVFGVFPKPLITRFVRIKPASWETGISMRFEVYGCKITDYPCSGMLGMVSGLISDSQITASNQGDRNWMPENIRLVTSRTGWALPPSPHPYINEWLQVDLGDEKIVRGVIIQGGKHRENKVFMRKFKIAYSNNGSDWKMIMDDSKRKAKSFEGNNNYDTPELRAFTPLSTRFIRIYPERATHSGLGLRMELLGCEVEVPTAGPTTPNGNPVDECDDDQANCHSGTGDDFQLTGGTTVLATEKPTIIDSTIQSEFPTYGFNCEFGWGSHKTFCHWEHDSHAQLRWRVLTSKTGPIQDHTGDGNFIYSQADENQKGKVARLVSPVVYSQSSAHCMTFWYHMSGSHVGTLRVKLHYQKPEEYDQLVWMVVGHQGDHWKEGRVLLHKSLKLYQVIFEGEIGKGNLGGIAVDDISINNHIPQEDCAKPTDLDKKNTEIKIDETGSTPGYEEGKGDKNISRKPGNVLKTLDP

B1: TKPPR (L-threonyl-L-lysyl-L-prolyl-L-prolyl-L-arginine), free monomeric peptide (peptide)
peptide: TKPPR-OH
notes: also called BRU-95; TKPPR-OH
In the case of B1, the IC50 in assay [1] worked out at 43000 nM; in assay [2] it was 80000 nM.

B2: VEGF165 (ligand, UniProt P15692-4 27-191, looked up)
chain: APMAEGGGQNHHEVVKFMDVYQRSYCHPIETLVDIFQEYPDEIEYIFKPSCVPLMRCGGCCNDEGLECVPTEESNITMQIMRIKPHQGQHIGEMSFLQHNKCECRPKKDRARQENPCGPCSERRKHLFVQDPQTCKCSCKNTDSRCKARQLELNERTCRCDKPRR
modifications: 125I label on the radioligand form
notes: Labelled and unlabelled forms and the different suppliers are kept as one molecule; also called unlabeled VEGF165
B2: the IC50 turned out to be 0.5 nM in assay [1] and 200 nM in assay [2].

B3: TKPPR dimer BRU-317, OG-(TKPPR)2 (peptide)
peptide: TKPPR
modifications: not fully specified (N-terminus); printed as OG-(TKPPR)2; also: dimer on branched scaffold with one Oregon Green label
In the case of B3, in assay [1], the 50% inhibitory concentration (IC50) turned out to be 3000 nM.

B4: BRU-239, Oregon Green (5-isomer)-GTKPPR-OH (peptide)
peptide: {Oregon Green (5-isomer)}-GTKPPR-OH
notes: also called OG-TKPPR; OG-TKPPR monomer
Turning to B4, the IC50 in assay [1] was determined as 30000 nM.

B5: TKPPR tetramer BRU-326, OG-(TKPPR)4 (peptide)
peptide: TKPPR-OH
modifications: not fully specified (N-terminus); printed as OG-(TKPPR)4; also: tetramer: four TKPPR chains joined via branched tetra-acid scaffold
notes: free C-terminal Arg on each arm; also called tetrameric TKPPR
The molecule B5 gave an IC50 in assay [1] of 130 nM. In addition, in assay [3], the dissociation constant (Kd) was in the range of 25 to 50 nM.
